Here are results for 2 molecules from publication PMC11216177.

This test has as its target H4K20R recombinant nucleosomes containing FLAG-tagged H2A and H4K20R. Description: pull-down.

B1: Set8 (enzyme)
chain: MIMVRRRQRPAKEAASSSSGGASSGSGIPVDQALPLNVAGNLLEDQYFASPKRKDCRLMKVTQNGQLPEATMMAHNKDNKAGRTIGVPLATRSQTRTIENFFKANAAAKDSQKTIHTEEQLNLGNQELKLDDEELNGQIKLDDEVLKLADKQINENLPFADEVDAKAEQKLMDEELQQVVEELLFDGSSRASSNSPFYQHDMDVMQEIQQTPEIPHIKKVTEPLEGLGSLADFQTHRSALRDSHSSTHSSSTDNIFLQEPVLTLDIDRTPTKASSIKINRSFELAGAVFSSPPSVLNACLNGRFNQIVSLNGQKEALDLPHFDLDQHDSSSCDSGVACGLTANTESPAGQPRRRKPATPHRILCPSPIKTALKVTGGICKVGSADPLSPRKSPRKLPTTTAAVAACKSRRRLNQPKPQAPYQPQLQKPPSQQQQQQQDDIVVVLDDDDDEGDDEDDVRALIKAAEERENQNKAPATANSNKAGMKTMLKPAPVKSKTKSKGPTKGQPPLPLAATNGNREMTDFFPVRRSVRKTKTAVKEEWMRGLEQAVLEERCDGLQVRHFMGKGRGVVADRPFKRNEFVVEYVGDLISIGEAAEREKRYALDENAGCYMYYFKHKSQQYCIDATVDTGKLGRLINHSRAGNLMTKVVLIKQRPHLVLLAKDDIEPGEELTYDYGDRSKESLLHHPWLAF
In the case of B1, the fold binding to H4K20R nucleosomes relative to WT nucleosomes was 14.5 fold.

B2: GFP-L(3)mbt (natural protein)
chain: MMALKMLYRGPSSRLENLIEKIQATKEITNNDMYSTHTSSSYSPSISDGTMTPNSHHLIGAPTAAGQEDHPTEGKINGGADGEDLPKPKRLPHFHHHHHHHYHHQQALKIANKLRKINKEAKMGATAGGGATGAASKFDKLTGEGIKSRGDGSYQCQFCEKTFPRLGYLKHHVQSHAEHLPFKCEYCSKLFKHKRSRDRHKKLHTNERNYKCPHCEAAFSRSDHLKIHMKTHDIQKPFQCSMCNRGYNTAAALTSHMQKHKKNAAILAAGGNPNALNYSPRSTGSASASVSSNGSLQKRRYALALASDSSPSRMDFPKRSRSNHVGGTTTTATPTPLLRCSYCPKVTEFSSLEQLNAHLQSVHEQPQTQAVKTPVQEGEGFQLSCEYCTMKFGNIAGLFQHMRSTHMDRLSSPNSYYEHFNRLATAGTFSPRLALDLPKIKPDLGSPERESRPAEDDLPTDLSNNKRRPLTPNPQAQTPLAPPSAPPGVFFCNQCNAGLPDFESFRNHLKSHIAEGMQLVCPHCGMSLPEQSEFERHVVGHFLITGSEFNCSSSCGKSFAKSEDLQQHLLSEHVLTLLKCSLCSELCESRMAMQLHLACAHSQETKLLRCSACLELFRSDAEFHVHVKTRHQLGGHPTLGATSSAPTNPLQCMFCRAVCSSELEMHFHLAAHARQFRCPSCPETFHVEFLLDRHMQSQHGGVKDKEANSPNMGSLYVNALLPPLAAAAAAAAATNNNSSIIDYNVAFKGLFGGASGGAGSGGGGAQSGGAPPSANKFYSPLQVDTNALKAQTSPHPALMYGLSQRYLMEMYAAKSTSPSGNEGVGNSQPPAPQATAPPPPPNASTATFSCGMCERQDLRSEAELHSHRKLAHNLKTGVSLRCAYCAGNFKSRAELEQHMKSCHNSTGKHKCLICDEVFPSPAILAEHKLQHSKVGQSGKCSHCGQPLEDVAAFRAHLSEHGSDGASLPLACICCRQTLHSEFELSLHAKFHTKSSSSGGSLQEPVCALCLEPLPDATEGPAKLCDKCCRKHNLNGKRGKHSEPATSLPAPPSAFVENRCNLCKMILPHAQKLQEHLVEHTFAGTEQRGFNCYICSAVFTAPGGLLNHMGEHGAHSRPYDCNLCPEKFFFRAELEHHQRGHELRPQARPPAAKVEVPSIRNTSPGQSPVRSPTIVKQELYETDTVESAGVEDEPENHPDEEEYIEVEQMPHETRPSGIGSQLERSTSSA
B2: the fold binding to H4K20R nucleosomes compared with WT nucleosomes was found to be 1.8 fold.
